This assay deals with HIV-1 NL4-3 Env on infected cells (HIV-1 group M subtype B, NL4-3 (pNL4-3 …, strain)).

B1: c13155 (antibody, V domains shown)
VH: DVQLLESGGGLVQPGGSLRLSCAGSGYPFSTSDMGWVRQAPGKGLEWVAAIGRSGDGIHYAESVKGRFTISRDNSNNSIYLQMSDLRGDDTGVYYCAKSGWGWCKRGSCSLTVDYWGQGALVTVSS
VL: EIVLTQSPATLSLSPGERATFSCRASQSVGSYLAWYQQKVGQSPRLLIYDSVNRGEGIPGRFSGRGVGTDFTLTIDAVEPEDFAVYYCQQRQIWPLTFGGGTKLEIK
Regarding B1, the binding result is “binds”.

B2: c6539 (antibody, V domains shown)
VH: QVRLIQSGTEVARPGSSVRVSCQVPGDILDKNAVAWVRQAPGQVPEFMGGLPSNFAYGVRAQKFEDRLSIIPDRSTNTVDMILRSVTSHDTAIYYCVTCPHRTTVIMSFYFEFWGQGTLVAVSS
VL: DVTVTQSPASVSASVGDRVTISCRASEDLMGRLAWYQQKPGHAPKLLISHTSTLQSGVPSRFTGSGSGADFTLTISSLQPEDSATYYCQQAQRFPPTFGQGTRLEIK
Regarding B2, the binding result is “binds”.

B3: c11461 (antibody, V domains shown)
VH: AGHLVESGGKLIRPGGSLSLSCVASGFTFRNAHMTWVRQVPGQGLEWIALMKSHADGSHTDYSPSVKNRCAISRDDSTSSLYLHLYNLQLDDTGIYFCVHLSSPDEWGLGTPVTVYS
VL: HIVLTQSPVTLSGSQGDTVALSCRANESLRSHLAWYQQRPGQRPKLLIYEVSRRPPATPPRFSGSGSGTDFTLIIRGLEPEDSAVYYCQQGDFWPFSFGQGTNLEIT
For the molecule B3, the binding result is “binds”.

B4: c5333 (antibody, V domains shown)
VH: EVQLLESGGGLVKPGGSLRLSCEASGYTFDSYGMSWVRQVPGQGLEWVSAINPNGRGTDYADSVKGRFTISRDNSRNILYLNMKNLRADDSAIYYCAKEWQLPFYPSLGPKFDFWGLGTRVTVSS
VL: YIALTQSPLSLAVTPGEPASISCKSSQSLLHSNGFHFLDWYLQKPGKSPQLLIFLGFRRASGVPDRFSASGSGTDFILQISRVEAEDVGVYFCMQGLQTPLTFGGGTKLEIK
Regarding B4, the binding result was “binds”.

B5: c9517 (antibody, V domains shown)
VH: QVKLQESGPGLVKPSETLSLTCVVSGVSISQSDYFWNWLRQTPGKGLEWLGFISYSGDSFFNPSLGSRLAMSVDTSSNHISLSLKSMTAADAAVYYCARTFCDDVKCYPLFDSWGHGKLVAVSS
VL: DIVMTQSPDSLPLSPGERASINCQSSQSVLYSSDNRNYLAWYQLKPGQPPKLLIYWASVRASGVPDRFSGSGSGTDFTLSISSLQAEDVAVYYCQQYYITPYSFGQGTKVEIR
B5: the binding result was “binds”.

B6: c9368 (antibody, V domains shown)
VH: QMQLVQSGAELKKPGSSVKVSCKASGGTVSSESVSWVRQAPGHGLEWMGGIIPMFGATNYAQRFQGRVTITADTSTSTAYMELRGLKFEDTAMYYCAREGDPGDYDSGRGLSNAFDIWGQGTMVSVSS
VL: EIVMTQSPGTLSVSPGERATLSCRASQSVSSNLAWYQQKPGQAPRLLIYGASTRATGIPARFIGSGSGTEFTLTISSLQSEDLAIYYCQQYNSWPPQYTFGQGTKLEIK
Regarding B6, the binding result is “binds”.

B7: c7487 (antibody, V domains shown)
VH: AVTLRQSASEVKKPGTTLKMSCKGSGFSFAESFIYWFRQAPGKRPEYLGLIVPGVSDTVYPDNLKARVAITADTSIETVYLQLSSLTSEDTAVYFCATTTYCSPETCEVAFDVWGQGTTIIVSA
VL: QSALTQPPSASGTPGQRVTIPCSGGSSNVGNNFVSWYQQLPGTAPRLLIYQDNVRPSGVPDRFSGSKSGASASLVISGLRSEDEADYYCCSWEDSLRGPLFGGGTKVTVL
For B7, the binding result is “binds”.

B8: c8452 (antibody, V domains shown)
VH: EVQLDQSGAEMRKPGTTVKISCKVSGYTTTTDYYVHWVQQAPGKGPQWVGLINVEDGDTIYAEAFQGRVSITADTSKRRVFLDLSGLTSEDSALYFCTTQSLETDTGDYVSAFDSWGQGTLVSVSP
VL: QSVLTQPPSVSAAPGQKVIISCSGRTSSVGTNFVSWYQQVPGAAPKLLIYDNENRPSGISDRFSASTSGTSATLAITALQSGDEADYYCGTWDSGLNPAIFVFGTGTRVSVL
On to B8, for which the binding result is given as “binds”.

B9: c8603 (antibody, V domains shown)
VH: AVQFLQSGAEVKKPGESLKISCQDRGYGFNDYWIAWVRQMPGKGLEWMGLIYPDDSDTRYSPSFQGQVTILADKSINTAYLQWNSLKASDSAIYYCARLMVVDERSENTFDIWGQGTVVTVSS
VL: SSGLTQSPSLSVSPGQTATVTCSGDPLVNHFASWYQQQPGQSPILVIYQDNQRPSGIPERFSGSKTGNTATLTIGETQAADEADYFCQSWDITTAGMIFGGGTKLTVL
On to B9, for which the binding result was “binds”.

B10: c27194 (antibody, V domains shown)
VH: QVHLVQSGDELKKPGSSVKVSCTAAGGTLNKYPITWVRQAPGQGLEWMGTLSPLFGTTDYGQKFQGRLTITTDGSAAHMVLAALTPDDTAVYFCATDKAMGVLPALHFWGQGTLITVSS
VL: EIVLTQSPGTLFLSPGERASLSCRASQNIGGLLAWYQQKPGQSPRLLIYDASNRATGIPARFSGSGSGTDFTLTISSLEPGDIAIYFCQQRSSWPVTFGGGTKVQIK
In the case of B10, the binding result is on record as “binds”.

B11: c7490 (antibody, V domains shown)
VH: QVRLIQSGTLVARPGSSVKVSCQAPGDILANDAVAWVRQAPGQSLEFLGGLPSNFAVGVRAPKFEDRLSIKVDRATKTVHMELRDLTFDDTAIYYCVTCPQRTSVVMSFYFQHWGQGSLVAVSS
VL: DIQMTQSPASVSASVGDRVTISCRASEEISGRLAWYQQRPGQGPKLLISHTSTLQSGVPSRFTGSGSGTDFTLTISSLQPEDSATYYCQQAQYFPPTFGQGTRLDLK
Consider B11, for which the binding result was “binds”.

B12: c9370 (antibody, V domains shown)
VH: EVQLVESGGGVVQPGGSLRLSCAASGFTFYSHTMIWVRQAPGKGPQYISHISSTGSNKDYSDSVKGRFTVSRDNDKNSLYLQMDSLRVEDTAIYYCARRSCSLTDCFVRSFSYDMDVWGQGTAVTVSS
VL: QSALTQPASMSGSPGQSISISCTGTTSDIGGYDSVCWYRQHPGEAPTLLIYDVSNRPSGVSGRFSGSKSANTASLTISGLQAEDEADYYCSSYSTGSSLVVFGGGTKLTVI
For the molecule B12, the binding result is reported as “binds”.

B13: c9416 (antibody, V domains shown)
VH: QVQLVQSGAEVRKPGSSVKVSCKASGGSFSDFGISWVRQAPGQGLEWMGGIIPGFETANYGQDFQGRVTMTADESTGTAYMELRRLRSEDTAVYYCATTGQQNDYYSSGLSYKLNYYLGLDVWGQGTAVSVSS
VL: QSVLTQPPSSSGTPGQRVTISCSGSSSNIGSNSVNWYQQLPGAAPKVVISANHQRPSGVPDRFSASKSGASASLAISGLQSEDEADYYCAAWDDSRNAWVFGGGTKLTVL
Consider B13, for which the binding result is “binds”.

B14: c5482 (antibody, V domains shown)
VH: EVQLVESGGGLAQPGGSLRLSCAASGFDFNNYWFYWVRQAPGRGLVWVARVNADGSNTRYVDSVRGRFTISRDSAKKIVYLEMNSVRDEDTAIYYCSRDTFVRVSSTHGYWSGMDVWGHGTTVTVAS
VL: SNELTQPPSVSVSPGQTATITCSGDVLSRQFVYWYQQKPGRAPVLVMYKDNERPSGIPERFSASSSGTRVTLTISGVQAEDEADYYCQSADNNGAHVFGTGTSVIVL
As to B14, the binding result is reported as “binds”.

B15: c9433 (antibody, V domains shown)
VH: QVQLVQSAAELRKPGESVKVSCKASGYRFTSYAISWVRQAPGQGLEWMGWMSPHSRTANYAQRFQGRVTMTTDTSTSTASMELRTLRSDDTAIYYCARRVYDWDIKETRLDPWGQGTLVTVSS
VL: not shown
Turning to B15, the binding result is on record as “binds”.

B16: c2785 (antibody, V domains shown)
VH: QVQLVQSGAEMKKPGSSVKVSCKASGGSFRSFTVNWVRQAPGQGLEWVGRIIAIFGSVDYAQKFQGRVTISADESTSTFYMDIRSLKSEDTAVYYCVRDGLVGGRDFWGQGTQVTVSS
VL: EIVLTQSPGTLSLSPGERATLFCRASQSIKKNYVAWYQQNPGQAPRLLIYGASSRATGTPDRFSGSGSGTDFTLTISRLEPEDFAVYYCQQYGSAQYSFGQGTKLEIK
For the molecule B16, the binding result is recorded as “binds”.

B17: c5407 (antibody, V domains shown)
VH: QMQLQESGGGRVRPLETLSLACSVSGGSISGDGYYWTWIRQTPGRALEWIGHIHHYGITNYNPSLKSRLTISLDKPKNQFFLTLTSVTVADTALYFCARTFYTFWSGPHDFLDLWGHGTAVIISL
VL: EIVMTQSPVTLSASPGERVALSCRASQSISTKLAWYQQRPGQAPTLLISGASSRASGTPARFSGSGSGADFTLTISTLQPEDFVLYFCQQYKEWPLTFGPGTKLEIK
Take B17: the binding result is reported as “binds”.

B18: c8597 (antibody, V domains shown)
VH: EVKLEASGGGLAQPGQSLRLSCIGSGFKFADYGLSWVRQTPGKGLQWVGFIRGRGSEATKHYAASVAGRFSMSRDDSKNIAYLQMKNLKTYDTGVYYCAREQYSFDFWSGYEDPYYYYMDLWGRGTTVTVSS
VL: DIQMTQSPAALSASIGDRVTISCRASQNIRDWVAWYQQKPGKAPNLLIYRASTLQTAIPSRFSASGFGTDFTLTISSLQPDDFATYFCQHYNSHFTGYSFGQGTKLEIK
Regarding B18, the binding result is reported as “binds”.

B19: c754 (antibody, V domains shown)
VH: QVQLVQSGPEVKKPGASARVSCKASGYMFSNNGISWVRQAPGQGLEWMGWISPQNGETLYAHKFQGRVSLTMDTSTNTAFLELTRLRSDDTAVYFCAREAHEDCGEENCFAETWLDTWGQGTQIIVSS
VL: QSVLTQPPSASGTPGQRITMPCSGSNSNIGRRSVCWFQQFPGAAPKVVLYKDSQRPSGVPDRFSGSKSGTSASLTISGLRSDDEADYFCAAWDDSLNVWAFGGGTKLTVL
For the molecule B19, the binding result was “binds”.

B20: c7484 (antibody, V domains shown)
VH: AVHLTQSGTEVKRPGTSVRISCKGSGFVFRDSFIYWLRQAPGKGPQYLGLIDPGNADTVYPDNFKDRVSITADTSVSTTYLELRRLQFDDTALYFCATTTYCSADSCELALDVWGQGTTVTVSS
VL: QSLLTQPPSASGAPGQSVTISCSGGASNIENNYVVWYQQVPGTAPKLIIYQDNVRPSGVPDRFSGSKSGASGSLLISGLRSEDEADYYCSSWDDSVRGPLFGGGTKVTVL
As for B20, the binding result is “binds”.

B21: c9596 (antibody, V domains shown)
VH: EVQLVQSGAEVKKPGTTIKISCKVSGYSFTDSFIHWLKQTPGKGPEWMGLIDPEASDGNKLYAERFQGRLTITADTTTDTAYMELSSLTSDDTAIYYCASQSPSFSDNSRFYGFFDHWGQGTLVNVAS
VL: DIVMTQSPDSLTVSLGERATFNCKSSQSVLDSSDNKNYLSWYQQKPGRPPKLLIYWASIRRSGVPDRFSGSGSGTDFTLTISSLQAEDAAVYFCQQYHTAPFTFGPGTKVDIK
Turning to B21, the binding result is “binds”.
